The source of these data is the PETadex activity labels.

Substrate in data set [1]: p-NP-C12
Substrate in data set [2]: BHET
Substrate in data set [3]: p-NP-C2
Substrate in data set [4]: p-NP-C14
To be noted: pH 7; 37 °C.

Substrate in data set [5]: p-NP-C16
The settings on record: pH 7; 37 °C.

Substrate in data set [6]: MHET
The settings on record: pH 8.5; 60 °C.

Substrate in data set [7]: p-NP-C4
To be noted: pH 8.

The mark [8] stands for this setting: pH 7, 30 °C, part of the chain shown.

B1: unnamed (protein)
chain: MERTVVETRYGRLRGGTNESVFVWKGIPYAKAPVGERRFLPPEPPDAWDGVREAAAFGPVVMQPSDPIFSGLLGRMSEAPSEDGLYLNIWSPAADGKKRPVLFWIHGGAFLFGSGSSPWYDGTAFAKHGDVVVVTINYRMNVFGFLHLGDLFGEAYAQAGNLGILDQVAALRWVKENIEAFGGDPDNITIFGESAGAASVGVLLSLSEASGLFRRAILQSGSGALLLRSPKTAMAMTERILERAGIRPGDRGRLLSIPSEELLRSALSLGPGIMYGPVVDGRVLRRHPIEALCDGAASGIPILIGVTKDEYNLFTLTDPSWTKLGEKELLDRINREVGPVPEAAIRYYAETAEPSAPDWQTWLRIMTYRVFVEGMLRTADAQAAHGADVYMYRFDYETPVFGGQLKACHALELPFVFHNLHQPGVANFVGNRPEREAIANEMHYAWLSFARTGDPNGDHLPEAWPAYTSERKAAFVFSAASHVEDDPFGRERAAWMTRT
What is called Km is the substrate concentration at which the rate is half of its maximum. Broadly, the kcat is the maximal rate divided by the concentration of active sites. Usually kcat/Km stands for the second-order rate constant that governs catalysis at low substrate concentration. Take B1: in data set [1] (pH 7.4, 60 °C), the Michaelis-Menten constant (Km) turned out to be 22800 µM, the turnover number (kcat) was 0.993 s⁻¹ and the kcat/Km worked out at 43.7 M⁻¹ s⁻¹.

B2: unnamed (protein)
chain: MFGKLPFARASLAVGALLLSAAAVAQTNPYQRGPDPTVSSLEATRGPFSTSSFTVSRPSGYGAGTVYYPTNAGGKVGAIAVVPGYTARQSSINWWGPRLASHGFVVITIDTNSTLDQPSSRSSQQMAALRQVVSLAGTSSSPIYNKVDTARLGVMGWSMGGGGSLISAKNNPSLRAAAPQAPWAQESFSSVTVPTLIVSCENDSIAPNSSHSFPFYNQMTRNKKANLVINGGSHSCANSGNSDAGLIGKYGVAWMKRFMDDDTRYSKFLCGAEHQADLSKRAVEAYKENCPY
As for B2, the catalytic constant (kcat) in data set [2] (48.5 °C) was determined as 28.5 s⁻¹.

B3: unnamed (protein)
chain: MFNQIGKKSALSLMAAGSLMFSATALAIGGGGSGGGNNGGGGGCEADCGYERGPDPSVSLLEASTGPFSVRTSNVSSSVRGFGGGTIHYPTNTTGTMAAIVVIPGFVSPESSIAWWGPKLASHGFVVMTIGTNSGFDQPASRASQLNNALDYLIEQNGSSRSPINGMIDTDRLGVMGWSMGGGGTLRVATEGRVSAAIPLAPWDSSSSQFRSIDTPTLIFACENDSTAPVRSHADPFYDAIPDSTAKAFVELDGGGHTCANGSSGFGGSYNDVLSRLGVSWMKLHLDKDQRYNQFVCGPNHESDRSISEYRGTCPY
Take B3: in data set [3] (20 °C), the Km is 2100 µM, the catalytic constant (kcat) came to 4.74 s⁻¹ and the specificity constant (kcat/Km) is 2260 M⁻¹ s⁻¹.

B4: unnamed (protein)
chain: MTHQIVTTQYGKIKGTTENGVHKWKGIPYAKPPVGQWRFKAPEPPEVWEDVLDATAYGPVCPQPSDLLSLSYAELPRQSEDCLYVNVFAPDTPSQNLPVMVWIHGGAFYLGAGSEPLYDGSKLAAQGEVIVVTLNYRLGPFGFLHMSSFDEAYSDNLGLLDQAAALKWVRENISAFGGDPNNVTVFGESAGGMSIAALLAMPAAKGLFQKAIMESGASRTMTKEQAASTAAAFLQVLGINESQMDRLHTVAAEDLLKAADQLRIAEKENIFQLFFQPALDPKTLPAEPEKAIAEGAASGIPLLIGTTRDEGYLFFTPDSDVHSQETLDAALEYLLGKPLAEKAADLYPRSLESQIHMMTDLLFWRPAVAYASAQSHYAPVWMYRFDWHPEKPPYNKAFHALELPFVFGNLDGLERMAKAEVTDEVKQLSHSIQTAWITFAKTGNPSTEAVNWPAYQEETRETLILDSKITIENDPESEKRQKLFPSKGEAALEHHHHHH
Consider B4, for which, in data set [2] (pH 7.5, 30 °C), the Km was found to be 100 µM, the kcat amounted to 37.7 s⁻¹ and the specificity constant (kcat/Km) amounted to 377000 M⁻¹ s⁻¹.

B5: unnamed (protein)
chain: MESQVRGGTRWKRFAVVMVPSVAATAAIGVALAQGALAASFSVSGQSFKVTAQELNGTGFSQYGAIDQGYTLSGEKTAHPVAVSVFDTARIQKMCQSVVTPNIPLLGSVSLTLTAGDSADPEKQVNAKNLYIDVEDLGADAEFTNIDIGVAGKDISQGPGMKAGEVQKKQANPYGFAQQAEKAKLTDVKQTAWATTAGTFKLPGLKMKLQTGTHECY
Turning to B5, in data set [1] (pH 7, 37 °C), the Km stood at 4300 µM, the catalytic constant (kcat) was 1.4 s⁻¹ and the kcat/Km amounted to 326 M⁻¹ s⁻¹. In data set [4], the Km came to 1100 µM, the kcat worked out at 4.5 s⁻¹ and the catalytic efficiency (kcat/Km) was found to be 4090 M⁻¹ s⁻¹. In addition, in data set [5], the Km stood at 2100 µM, the catalytic constant (kcat) is 2.9 s⁻¹ and the specificity constant (kcat/Km) is 1380 M⁻¹ s⁻¹.

B6: unnamed (protein)
chain: MAKEILVAYGVDIDAVAGWLGSYGGEDSPDDISRGLFAGEVGIPRLLKLFKKYHLPATWFSPGHSIETFSEQMKMIVDAGHEVGAHGYSHENPIAMTAKQEEDVLLKSVELIKDLTGKAPTGYVAPWWEFSNITNELLLKHGFKYDHSLMHNDFTPYYVRVGDSWSKIDYSLEAKDWMKPLIRGVETDLVEIPANWYLDDLPPMMFIKKSPNSFGFVSPHDIGQMWIDQFDWVYREMDYAVFSMTIHPDVSARPQVLLMHEKIIEHINKHEGVRWVTFNEIADDFLKRNPRKK
B6: in data set [3] (pH 6, 30 °C), the Km came to 180 µM, the catalytic constant (kcat) is 20.2 s⁻¹ and the kcat/Km came out at 112000 M⁻¹ s⁻¹.

B7: unnamed (protein)
chain: MKEGKHFVLVHGACHGGWSWYKLKPLLEAAGHKVTALDLAASGTDLRKIEELRTLYDYTLPLMELMESLSADEKVILVGHSLGGMNLGLAMEKYPQKIYAAVFLAAFMPDSVHNSSFVLEQYNERTPAENWLDTQFLPYGSPEEPLTSMFFGPKFLAHKLYQLCSPEDLALASSLVRPSSLFMEDLSKAKYFTDERFGSVKRVYIVCTEDKGIPEEFQRWQIDNIGVTEAIEIKGADHMAMLCEPQKLCASLLEIAHKYN
Regarding B7, in data set [3] (pH 7.2, 25 °C), the Km was determined as 1400 µM, the kcat is 2 s⁻¹ and the kcat/Km was 1430 M⁻¹ s⁻¹.

B8: unnamed (protein)
chain: MKEGKHFVLVHTACHGGWSWYKLKPLLEAAGHKVTALDLAASGTDLRKIEELRTLYDYTLPLMELMESLSADEKVILVGHSLGGMNLGLAMEKYPQKIYAAVFLAAFMPDSVHNSSFVLEQYNERTPAENWLDTQFLPYGSPEEPLTSMFFGPKFLAHKLYQLCSPEDLALASSLVRPSSLFMEDLSKAKYFTDERFGSVKRVYIVCTEDKGIPEEFQRWQIDNIGVTEAIEIKGADHMAMLCEPQKLCASLLEIAHKYN
For B8, in data set [3] (pH 7.2, 25 °C), the Michaelis-Menten constant (Km) is 8700 µM, the kcat was determined as 0.0283 s⁻¹ and the kcat/Km came to 3.26 M⁻¹ s⁻¹.

B9: unnamed (protein)
chain: MKEGKHFVLVHTACHGGWSWYKLKPLLEAAGHKVTALDLAASGTDLRKIEELRTLYDYTLPLMELMESLSADEKVILVGHSLGGMNLGLAMEKYPQKIYAAVFLAAFMPDSVHNSSFVLEQYNERTPAENWLDTQFLPYGSPEEPLTSMFFGPKFLAHKLYQLCSPEDLALASSLVRPSSLFMEDLSKAKYFTDERFGSVKRVYIVCTEDKGIPEEFQRWQIDNIGVTEAIEIKGADHKAMLCEPQKLCASLLEIAHKYN
With B9, in data set [3] (pH 7.2, 25 °C), the Km came to 7600 µM, the kcat worked out at 0.025 s⁻¹ and the kcat/Km worked out at 3.29 M⁻¹ s⁻¹.

B10: unnamed (protein)
chain: MAVMTPRRERSSLLSRALQVTAAAATALVTAVSLAAPAHAANPYERGPNPTDALLEASSGPFSVSEENVSRLSASGFGGGTIYYPRENNTYGAVAISPGYTGTEASIAWLGERIASHGFVVITIDTITTLDQPDSRAEQLNAALNHMINRASSTVRSRIDSSRLAVMGHSMGGGGTLRLASQRPDLKAAIPLTPWHLNKNWSSVTVPTLIIGADLDTIAPVATHAKPFYNSLPSSISKAYLELDGATHFAPNIPNKIIGKYSVAWLKRFVDNDTRYTQFLCPGPRDGLFGEVEEYRSTCPF
As to B10, the Km was 39700 µM in data set [2] (pH 8.5, 60 °C); 7330 µM in data set [6]; 312 µM in data set [7] (20 °C); 505 µM in data set [7] (60 °C). Moreover, the kcat in data set [2] (pH 8.5, 60 °C) is 26.8 s⁻¹; in data set [6], 0.31 s⁻¹; in data set [7] (20 °C), 304 s⁻¹; in data set [7] (60 °C) it was 742 s⁻¹. Also, the kcat/Km is 674 M⁻¹ s⁻¹ in data set [2] (pH 8.5, 60 °C); 42.3 M⁻¹ s⁻¹ in data set [6]; 973000 M⁻¹ s⁻¹ in data set [7] (20 °C); 1.47e+06 M⁻¹ s⁻¹ in data set [7] (60 °C).

B11: unnamed (protein)
chain: MNFPRASRLMQAAVLGGLMAVSAAATAQTNPYARGPNPTAASLEASAGPFTVRSFTVSRPSGYGAGTVYYPTNAGGTVGAIAIVPGYTARQSSIKWWGPRLASHGFVVITIDTNSTLDQPSSRSSQQMAALRQVASLNGTSSSPIYGKVDTARMGVMGWSMGGGGSLISAANNPSLKAAAPQAPWDSSTNFSSVTVPTLIFACENDSIAPVNSSALPIYDSMSRNAKQFLEINGGSHSCANSGNSNQALIGKKGVAWMKRFMDNDTRYSTFACENPNSTRVSDFRTANCS
As for B11, in data set [3] (setting [8]), the Km was 4600 µM, the turnover number (kcat) came out at 27 s⁻¹ and the specificity constant (kcat/Km) is 5870 M⁻¹ s⁻¹.

B12: unnamed (protein)
chain: MTHQIVTTQYGKIKGTTENGVHKWKGIPYAKPPVGQWRFKAPEPPEVWEDVLDATAYGPVCPQPSDLLSLSYAELPRQSEDCLYVNVFAPDTPSQNLPVMVWIHGGAFYLGAGSEPLYDGSKLAAQGEVIVVTLNYRLGPFGFLHMSSFDEAYSDNLGLLDQAAALKWVRENISAFGGDPNNVTVFGESAGGMSIAALLAMPAAKGLFQKAIMESGASRTMTKEQAASTAAAFLQVLGINESQMDRLHTVAAEDLLKAADQLRIAEKENIFQLFFQPALDPKTLPAEPEKAIAEGAASGIPLLIGTTRDEGYLFFTPDSDVHSQETLDAALEYLLGKPLAEKAADLYPRSLESQIHMMTDLLFWRPAVAYASAQSHYAPVWMYRFDWHPEKPPYNKAFHALELPFVFGNAEVTDEVKQLSHSIQTAWITFAKTGNPSTEAVNWPAYQEETRETLILDSKITIENDPESEKRQKLFPSKGEAALEHHHHHH
On to B12, for which, in data set [2] (pH 7.5, 30 °C), the Km stood at 80 µM, the catalytic constant (kcat) is 102 s⁻¹ and the specificity constant (kcat/Km) turned out to be 1.28e+06 M⁻¹ s⁻¹.
